Experiment [1] concerns the target SpsD_(520-846) (C domain, connecting region of SpsD) (Staphylococcus pseudintermedius ED99). Briefly: SPR; Biacore X100; SpsD520-846 or SpsL538-823 covalently immobilised on CM5 chips; 2-fold dilution series of Fn in PBS with 0.005% Tween 20, 30 ul/min, 22°C; steady-state response fitted to the Langmuir equation (one-site model).
The target in experiment [2] is SpsL_(538-823) (R domain, repetitive region of SpsL) (Staphylococcus pseudintermedius ED99). The experiment is described as above.
The target in experiment [3] is Human fibronectin purified from plasma (human). As to the kind of experiment: single-molecule force spectroscopy (AFM), dynamic force spectroscopy; Fn tips against immobilised bacteria, PBS, room temperature; retraction speeds 0.5, 1, 3, 5 and 10 um/s to vary the loading rate.
The target is the same in experiment [4]. Briefly: single-cell force spectroscopy (AFM); single bacterium on a polydopamine colloidal probe against Fn-coated gold substrates in PBS, room temperature, applied force 250 pN, approach and retraction 1,000 nm/s, contact time 100 ms.
For experiment [5] the target is unchanged. Briefly: single-molecule force spectroscopy (AFM); AFM tips functionalized with Fn (EDC/NHS) against bacteria immobilised on polystyrene, PBS, room temperature, applied force 250 pN, approach and retraction 1,000 nm/s, contact time 100 ms.

For “Human fibronectin purified from plasma (natural protein)”, the figures for the dissociation constant (Kd) in experiment [1] and in experiment [2] were 0.0012 µM and 0.05 µM, respectively.
Turning to “SpsD on the surface of S. pseudintermedius ED99 spsL mutant cells (natural protein)”, in experiment [3], the bond strength at low tensile force was 0.25 nN and the bond strength under mechanical tension is 2 nN. Also, in experiment [4], the adhesion force (cell 1) worked out at 1440 pN, the adhesion force (cell 2) stood at 1750 pN and the adhesion force (cell 3) is 1540 pN. In experiment [5], this substance came in with an unbinding force (cell 1) of 1500 pN, an unbinding force (cell 2) of 1700 pN and an unbinding force (cell 3) of 1820 pN.
In experiment [4], “SpsL on the surface of S. pseudintermedius ED99 spsD mutant cells (natural protein)” came in with an adhesion force (3 cells) of 168 pN and a frequency of adhesive force curves of 66%. Further, the adhesion force (3 cells) in experiment [5] stood at 158 pN.

The values above are taken from paper PMC7343985.
